The source of these data is patent US20240052037A1 (BEIJING HANMI PHARMACEUTICAL, published 2024).

In this assay the target is T1, CD47 on cells (HCC827 tumor cells; red blood cells from healthy people) (human, UniProt Q08722 19-323).
T1 construct: whole, on cells; Endogenous CD47 on human cells
Description: flow cytometry on mixed HCC827 cells and red blood cells.
Description: HCC827 tumor cells express PD-L1 and CD47, but red blood cells (RBCs) express only CD47. HCC827 cells and RBCs were mixed together, and flow cytometry (FCM) was used to detect whether the heterodimer was selective for the binding to the two cells in the mixed cells.
The specific implementation process of this method is as follows. […] Flow tubes were incubated on ice for 30 minutes. The cells were washed twice with PBS containing 2% FBS. Then the pellets were resuspended in 200 μL of cold PBS containing 2% FBS and FITC-labeled anti-human IgG antibody diluted 1:1000 (Beijing Zhongshan Golden Bridge, Catalog number ZF0306), incubated on ice for 30 minutes in the dark. The cells were washed twice with PBS containing 2% FBS, then resuspended in 500 μL of cold PBS. The cell suspension obtained was detected and analyzed on a flow cytometer (BD, FACS Calibur), and the respective fluorescence intensities of the two cells in the mixed cells were read.

T1 sequence (Q08722 19-323): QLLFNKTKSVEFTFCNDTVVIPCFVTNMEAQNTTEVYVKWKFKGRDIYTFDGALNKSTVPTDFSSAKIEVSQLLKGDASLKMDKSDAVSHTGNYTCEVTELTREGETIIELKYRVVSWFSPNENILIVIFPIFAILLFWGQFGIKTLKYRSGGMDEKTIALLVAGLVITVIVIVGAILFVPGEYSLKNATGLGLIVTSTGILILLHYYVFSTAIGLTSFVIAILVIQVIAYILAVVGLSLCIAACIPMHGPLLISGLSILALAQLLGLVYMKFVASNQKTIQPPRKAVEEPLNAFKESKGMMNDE

B1: CD47 monoclonal antibody (heavy and light chain variable region sequences of the humanized sequences z11 of the antibody CD47-18-5 and the constant region … (antibody, V domains shown)
VH: QVQLVQSGAEVKKPGSSVKVSCKASGFNIEDIYMHWVRQAPGQGLEWMGRIDPANDNTKYGPKLQGRVTITADTSTNTAYMELSSLRSEDTAVYYCVRRIPTDIMDYWGQGTTVTVSS
VL: DIQMTQSPSSLSASVGDRVTITCKASQNVRTSIAWYQQKPGKAPKTLIYLASNRHTGVPSRFSGSGSGTEFTLTISNLQPEDFATYYCLQHWNYPFTFGQGTKLEIK
notes: also called anti-CD47 monoclonal antibody
For B1, the binding result was “binds”.
